The results in this text go back to FireProtDB (doi:10.1021/bi026827i).

Sequence of Cytochrome c isoform 1 K28Q, P00044 (P00044 whole entry K28Q, canonical isoform): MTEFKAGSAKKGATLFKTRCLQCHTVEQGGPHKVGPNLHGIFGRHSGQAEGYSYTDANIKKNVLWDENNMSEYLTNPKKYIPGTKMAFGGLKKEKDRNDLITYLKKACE
Sequence of Cytochrome c isoform 1 K17Q, P00044 (P00044 whole entry K17Q, canonical isoform): as the sequence (P00044 whole entry K28Q, canonical isoform) above, with K17Q, Q28K counted along it
Sequence of Cytochrome c isoform 1 K60Q|K61Q, P00044 K60Q K61Q (P00044 whole entry K60Q/K61Q, canonical isoform): as the sequence (P00044 whole entry K28Q, canonical isoform) above, with Q28K, K60Q, K61Q counted along it
Sequence of Cytochrome c isoform 1 K10Q|K11Q, P00044 K10Q K11Q (P00044 whole entry K10Q/K11Q, canonical isoform): as the sequence (P00044 whole entry K28Q, canonical isoform) above, with K10Q, K11Q, Q28K counted along it
Sequence of Cytochrome c isoform 1 K33Q, P00044 (P00044 whole entry K33Q, canonical isoform): as the sequence (P00044 whole entry K28Q, canonical isoform) above, with Q28K, K33Q counted along it

The conditions of this data set: Saccharomyces cerevisiae (strain ATCC 204508 / S288c); pH 7; 25 °C; GdnHCl; CD; Tris 20 mM; NaCl 40 mM; structure 1YCC.
For Cytochrome c isoform 1 K17Q, P00044, the denaturant m value came to 5.33 kcal/mol/M, the “denaturant midpoint (higher = more stable)” value (“denaturant midpoint” for short) turned out to be 0.64 M and the unfolding free energy stood at 3.37 kcal/mol.

Cytochrome c isoform 1 K28Q, P00044: the denaturant m value came to 3.2 kcal/mol/M, the “denaturant midpoint” value turned out to be 0.94 M and the unfolding free energy was 2.96 kcal/mol.

As to Cytochrome c isoform 1 K33Q, P00044, the denaturant m value was 3.7 kcal/mol/M, the “denaturant midpoint” value is 1.09 M and the unfolding free energy turned out to be 4.04 kcal/mol.

In the case of “Cytochrome c isoform 1 K10Q|K11Q, P00044 K10Q K11Q”, the denaturant m value was 3.06 kcal/mol/M, the “denaturant midpoint” value was determined as 1.05 M and the unfolding free energy was 3.2 kcal/mol.

On to “Cytochrome c isoform 1 K60Q|K61Q, P00044 K60Q K61Q”, for which the denaturant m value amounted to 3.06 kcal/mol/M, the “denaturant midpoint” value was determined as 0.99 M and the unfolding free energy stood at 3.04 kcal/mol.
